The data set has as its target HER2 (recombinant human HER2 standard) (human, UniProt P04626 23-652). Briefly: electrochemiluminescence aptasensor; aptamer immobilized on MoS2-NS, BSA blocked; [Ru(bpy)3]2+/CD read-out; LOD 1.84 fg/mL (not a Kd); HER2 diluted in 10 mM phosphate buffer, 0.4 M NaCl, pH 7.4; BSA-blocked electrode; incubation temperature not given in the material. To be noted: protein: recombinant.

B1: Apt-SH (HER2 aptamer) (ssDNA)
DNA: AACCGCCCAAATCCCTAAGAGTCTGCACTTGTCATTTTGTATATGTATTTGGTTTTTGGCTCTCACAGACACACTACACACGCACA
modifications: 5'-SH-(CH2)6 thiol
In the case of B1, the binding result is “binds”.
